Target: Dyn A(1-11)NH2 (Rattus norvegicus)
Experiment: radioligand

Ki: 2.6 nM
B1: KOR, P34975 (protein)
chain: MESPIQIFRGEPGPTCAPSACLLPNSSSWFPNWAESDSNGSVGSEDQQLEPAHISPAIPVIITAVYSVVFVVGLVGNSLVMFVIIRYTKMKTATNIYIFNLALADALVTTTMPFQSAVYLMNSWPFGDVLCKIVISIDYYNMFTSIFTLTMMSVDRYIAVCHPVKALDFRTPLKAKIINICIWLLASSVGISAIVLGGTKVREDVDVIECSLQFPDDEYSWWDLFMKICVFVFAFVIPVLIIIVCYTLMILRLKSVRLLSGSREKDRNLRRITKLVLVVVAVFIICWTPIHIFILVEALGSTSHSTAVLSSYYFCIALGYTNSSLNPVLYAFLDENFKRCFRDFCFPIKMRMERQSTNRVRNTVQDPASMRDVGGMNKPV
